Test results taken from the supplement of paper PMC9233669.
Fewer inactive variants are shown than the library holds.

Columns and labels:
biotinyl-Met-oxazolone = test: self-aminoacylation, catalytic enhancement (BMO) (fold over background); higher = more active; k-Seq, kA / k0A0; sequences stand for … in GGGAAUGGAUCCACAUCUACGAAUUC…UUCACUGCAGACUUGACGAAGCUG
Procedure, shortened: (§1)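 Catalytic enhancement equals the median kA over the uncatalyzed rate, the latter read from the low-activity peak of a bimodal Gaussian fit. Values of kA came from fitting each sequence's fraction reacted to a pseudo-first-order model, with 1000 bootstraps. Reacted RNA was captured with streptavidin and quantified by triplicate qPCR and Illumina sequencing after 90 minutes at room temperature with 2–1250 μM biotinyl-aminoacyl-oxazolone and 0.43 μM mutagenized RNA pools bearing a 21-nt variable region.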

biotinyl-Ile-oxazolone = test: self-aminoacylation, catalytic enhancement (BIO) (fold over background); higher = more active; k-Seq, kA / k0A0; sequences stand for … in GGGAAUGGAUCCACAUCUACGAAUUC…UUCACUGCAGACUUGACGAAGCUG
Procedure, shortened: as §1

biotinyl-Phe-oxazolone = test: self-aminoacylation, catalytic enhancement (BFO) (fold over background); higher = more active; k-Seq, kA / k0A0; sequences stand for … in GGGAAUGGAUCCACAUCUACGAAUUC…UUCACUGCAGACUUGACGAAGCUG
Procedure, shortened: as §1

biotinyl-Val-oxazolone = test: self-aminoacylation, catalytic enhancement (BVO) (fold over background); higher = more active; k-Seq, kA / k0A0; sequences stand for … in GGGAAUGGAUCCACAUCUACGAAUUC…UUCACUGCAGACUUGACGAAGCUG
Procedure, shortened: as §1

biotinyl-Trp-oxazolone = test: self-aminoacylation, catalytic enhancement (BWO) (fold over background); higher = more active; k-Seq, kA / k0A0; sequences stand for … in GGGAAUGGAUCCACAUCUACGAAUUC…UUCACUGCAGACUUGACGAAGCUG
Procedure, shortened: as §1

biotinyl-Leu-oxazolone = test: self-aminoacylation, catalytic enhancement (BLO) (fold over background); higher = more active; k-Seq, kA / k0A0; sequences stand for … in GGGAAUGGAUCCACAUCUACGAAUUC…UUCACUGCAGACUUGACGAAGCUG
Procedure, shortened: as §1

With “AAAUUAGCUAAUAGUCGCAAG [Fam3.1 aminoacylation ribozyme variant]” the self-aminoacylation (biotinyl-Met-oxazolone) was 1.85, the self-aminoacylation (biotinyl-Ile-oxazolone) was 2.36 and the self-aminoacylation (biotinyl-Phe-oxazolone) was 2.21. The self-aminoacylation (biotinyl-Val-oxazolone) was 1.81, the self-aminoacylation (biotinyl-Trp-oxazolone) was 3.09 and the self-aminoacylation (biotinyl-Leu-oxazolone) was 1.92.

Sequence “AAAUUUCCUAAUAGUCGCAAG [Fam3.1 aminoacylation ribozyme variant]” has a self-aminoacylation (biotinyl-Met-oxazolone) of 1.1, a self-aminoacylation (biotinyl-Ile-oxazolone) of 1.24 and a self-aminoacylation (biotinyl-Phe-oxazolone) of 1.2. For the same sequence, the self-aminoacylation (biotinyl-Val-oxazolone) was 1.09, the self-aminoacylation (biotinyl-Trp-oxazolone) was 0.976 and the self-aminoacylation (biotinyl-Leu-oxazolone) was 1.18.

“AAAUUUGCGAAUAGUCGCAAG [Fam3.1 aminoacylation ribozyme variant]” showed a self-aminoacylation (biotinyl-Met-oxazolone) of 1.59, a self-aminoacylation (biotinyl-Ile-oxazolone) of 1.71 and a self-aminoacylation (biotinyl-Phe-oxazolone) of 1.99. It also gave a self-aminoacylation (biotinyl-Val-oxazolone) of 1.56, a self-aminoacylation (biotinyl-Trp-oxazolone) of 1.54 and a self-aminoacylation (biotinyl-Leu-oxazolone) of 1.33.

“AAAUUUGCUAAUACUCGCAAG [Fam3.1 aminoacylation ribozyme variant]” showed a self-aminoacylation (biotinyl-Met-oxazolone) of 1.33, a self-aminoacylation (biotinyl-Ile-oxazolone) of 1.36 and a self-aminoacylation (biotinyl-Phe-oxazolone) of 1.63. For the same sequence, the self-aminoacylation (biotinyl-Val-oxazolone) was 1.34, the self-aminoacylation (biotinyl-Trp-oxazolone) was 1.51 and the self-aminoacylation (biotinyl-Leu-oxazolone) was 1.25.

Sequence “AAAUUUGCUAAUAGGCGCAAG [Fam3.1 aminoacylation ribozyme variant]” has a self-aminoacylation (biotinyl-Met-oxazolone) of 1.28, a self-aminoacylation (biotinyl-Ile-oxazolone) of 1.41 and a self-aminoacylation (biotinyl-Phe-oxazolone) of 1.29. The self-aminoacylation (biotinyl-Val-oxazolone) was 1.04, the self-aminoacylation (biotinyl-Trp-oxazolone) was 1.25 and the self-aminoacylation (biotinyl-Leu-oxazolone) was 1.51.

“AAAUUUGCUAAUAGUAGCAAG [Fam3.1 aminoacylation ribozyme variant]” showed a self-aminoacylation (biotinyl-Met-oxazolone) of 1.38, a self-aminoacylation (biotinyl-Ile-oxazolone) of 1.59 and a self-aminoacylation (biotinyl-Phe-oxazolone) of 2.63. The self-aminoacylation (biotinyl-Val-oxazolone) was 1.27, the self-aminoacylation (biotinyl-Trp-oxazolone) was 1.96 and the self-aminoacylation (biotinyl-Leu-oxazolone) was 1.26.

With “AAAUUUGCUAAUAGUCACAAG [Fam3.1 aminoacylation ribozyme variant]” the self-aminoacylation (biotinyl-Met-oxazolone) was 1.62, the self-aminoacylation (biotinyl-Ile-oxazolone) was 1.58 and the self-aminoacylation (biotinyl-Phe-oxazolone) was 2.81. The self-aminoacylation (biotinyl-Val-oxazolone) was 1.49, the self-aminoacylation (biotinyl-Trp-oxazolone) was 1.71 and the self-aminoacylation (biotinyl-Leu-oxazolone) was 1.26.

“AAAUUUGCUAAUAGUCGCAAC [Fam3.1 aminoacylation ribozyme variant]” showed a self-aminoacylation (biotinyl-Met-oxazolone) of 1.31, a self-aminoacylation (biotinyl-Ile-oxazolone) of 1.88 and a self-aminoacylation (biotinyl-Phe-oxazolone) of 1.64. The self-aminoacylation (biotinyl-Val-oxazolone) was 1.51, the self-aminoacylation (biotinyl-Trp-oxazolone) was 1.52 and the self-aminoacylation (biotinyl-Leu-oxazolone) was 1.91.

In the case of “AAAUUUGCUAAUAGUCGCAUG [Fam3.1 aminoacylation ribozyme variant]”, the self-aminoacylation (biotinyl-Met-oxazolone) is reported as 2.13, the self-aminoacylation (biotinyl-Ile-oxazolone) is reported as 2.28 and the self-aminoacylation (biotinyl-Phe-oxazolone) is reported as 2.04. It also gave a self-aminoacylation (biotinyl-Val-oxazolone) of 1.8, a self-aminoacylation (biotinyl-Trp-oxazolone) of 3.67 and a self-aminoacylation (biotinyl-Leu-oxazolone) of 2.81.

“AAAUUUGCUACUAGUCGCAAG [Fam3.1 aminoacylation ribozyme variant]” was tested, and the self-aminoacylation (biotinyl-Met-oxazolone) was 1.96, the self-aminoacylation (biotinyl-Ile-oxazolone) was 2.05 and the self-aminoacylation (biotinyl-Phe-oxazolone) was 1.86. For the same sequence, the self-aminoacylation (biotinyl-Val-oxazolone) was 1.63, the self-aminoacylation (biotinyl-Trp-oxazolone) was 2.54 and the self-aminoacylation (biotinyl-Leu-oxazolone) was 1.59.

For “AACGUUGCUAAUAGUCGCAAG [Fam3.1 aminoacylation ribozyme variant]”, the self-aminoacylation (biotinyl-Met-oxazolone) was 1.81, the self-aminoacylation (biotinyl-Ile-oxazolone) was 1.64 and the self-aminoacylation (biotinyl-Phe-oxazolone) was 2.3. The self-aminoacylation (biotinyl-Val-oxazolone) was 1.68, the self-aminoacylation (biotinyl-Trp-oxazolone) was 1.97 and the self-aminoacylation (biotinyl-Leu-oxazolone) was 1.66.

With “AACUUUACUAAUAGUCGCAAG [Fam3.1 aminoacylation ribozyme variant]” the self-aminoacylation (biotinyl-Met-oxazolone) was 2.23, the self-aminoacylation (biotinyl-Ile-oxazolone) was 2.07 and the self-aminoacylation (biotinyl-Phe-oxazolone) was 6.76. For the same sequence, the self-aminoacylation (biotinyl-Val-oxazolone) was 1.86, the self-aminoacylation (biotinyl-Trp-oxazolone) was 2.92 and the self-aminoacylation (biotinyl-Leu-oxazolone) was 2.26.

In the case of “AACUUUCCUAAUAGUCGCAAG [Fam3.1 aminoacylation ribozyme variant]”, the self-aminoacylation (biotinyl-Met-oxazolone) is reported as 1.4, the self-aminoacylation (biotinyl-Ile-oxazolone) is reported as 1.29 and the self-aminoacylation (biotinyl-Phe-oxazolone) is reported as 2.29. The self-aminoacylation (biotinyl-Val-oxazolone) was 1.11, the self-aminoacylation (biotinyl-Trp-oxazolone) was 1.72 and the self-aminoacylation (biotinyl-Leu-oxazolone) was 1.58.

“AACUUUGAUAAUAGUCGCAAG [Fam3.1 aminoacylation ribozyme variant]” showed a self-aminoacylation (biotinyl-Met-oxazolone) of 1.66, a self-aminoacylation (biotinyl-Ile-oxazolone) of 1.71 and a self-aminoacylation (biotinyl-Phe-oxazolone) of 2.61. For the same sequence, the self-aminoacylation (biotinyl-Val-oxazolone) was 1.42, the self-aminoacylation (biotinyl-Trp-oxazolone) was 1.55 and the self-aminoacylation (biotinyl-Leu-oxazolone) was 1.91.

“AACUUUGCAAAUAGUCGCAAG [Fam3.1 aminoacylation ribozyme variant]” showed a self-aminoacylation (biotinyl-Met-oxazolone) of 1.96, a self-aminoacylation (biotinyl-Ile-oxazolone) of 2.3 and a self-aminoacylation (biotinyl-Phe-oxazolone) of 4.66. It also gave a self-aminoacylation (biotinyl-Val-oxazolone) of 1.94, a self-aminoacylation (biotinyl-Trp-oxazolone) of 1.99 and a self-aminoacylation (biotinyl-Leu-oxazolone) of 2.8.

Work on “AACUUUGCUAAGAGUCGCAAG [Fam3.1 aminoacylation ribozyme variant]” yielded a self-aminoacylation (biotinyl-Met-oxazolone) of 3.93, a self-aminoacylation (biotinyl-Ile-oxazolone) of 2.78 and a self-aminoacylation (biotinyl-Phe-oxazolone) of 12.8. It also gave a self-aminoacylation (biotinyl-Val-oxazolone) of 2.62, a self-aminoacylation (biotinyl-Trp-oxazolone) of 5.02 and a self-aminoacylation (biotinyl-Leu-oxazolone) of 4.13.

Sequence “AACUUUGCUAAUAGUCCCAAG [Fam3.1 aminoacylation ribozyme variant]” has a self-aminoacylation (biotinyl-Met-oxazolone) of 1.56, a self-aminoacylation (biotinyl-Ile-oxazolone) of 1.92 and a self-aminoacylation (biotinyl-Phe-oxazolone) of 3.69. The self-aminoacylation (biotinyl-Val-oxazolone) was 1.64, the self-aminoacylation (biotinyl-Trp-oxazolone) was 1.51 and the self-aminoacylation (biotinyl-Leu-oxazolone) was 1.6.

“AACUUUGCUAAUAGUCGCAAU [Fam3.1 aminoacylation ribozyme variant]” showed a self-aminoacylation (biotinyl-Met-oxazolone) of 2.79, a self-aminoacylation (biotinyl-Ile-oxazolone) of 2.94 and a self-aminoacylation (biotinyl-Phe-oxazolone) of 6.33. The self-aminoacylation (biotinyl-Val-oxazolone) was 2.51, the self-aminoacylation (biotinyl-Trp-oxazolone) was 2.77 and the self-aminoacylation (biotinyl-Leu-oxazolone) was 3.35.

Work on “AACUUUGCUAAUAGUCGGAAG [Fam3.1 aminoacylation ribozyme variant]” yielded a self-aminoacylation (biotinyl-Met-oxazolone) of 1.38, a self-aminoacylation (biotinyl-Ile-oxazolone) of 1.43 and a self-aminoacylation (biotinyl-Phe-oxazolone) of 3.03. The self-aminoacylation (biotinyl-Val-oxazolone) was 1.4, the self-aminoacylation (biotinyl-Trp-oxazolone) was 1.49 and the self-aminoacylation (biotinyl-Leu-oxazolone) was 1.15.

For “AACUUUGCUAAUGGUCGCAAG [Fam3.1 aminoacylation ribozyme variant]”, the self-aminoacylation (biotinyl-Met-oxazolone) was 2.44, the self-aminoacylation (biotinyl-Ile-oxazolone) was 2.47 and the self-aminoacylation (biotinyl-Phe-oxazolone) was 9.47. The self-aminoacylation (biotinyl-Val-oxazolone) was 2.43, the self-aminoacylation (biotinyl-Trp-oxazolone) was 3.24 and the self-aminoacylation (biotinyl-Leu-oxazolone) was 2.64.

For “AACUUUGCUAAUUGUCGCAAG [Fam3.1 aminoacylation ribozyme variant]”, the self-aminoacylation (biotinyl-Met-oxazolone) was 2.71, the self-aminoacylation (biotinyl-Ile-oxazolone) was 2.78 and the self-aminoacylation (biotinyl-Phe-oxazolone) was 9.97. For the same sequence, the self-aminoacylation (biotinyl-Val-oxazolone) was 2.39, the self-aminoacylation (biotinyl-Trp-oxazolone) was 4.3 and the self-aminoacylation (biotinyl-Leu-oxazolone) was 2.44.

With “AACUUUGCUACUAGUCGCAAG [Fam3.1 aminoacylation ribozyme variant]” the self-aminoacylation (biotinyl-Met-oxazolone) was 2.34, the self-aminoacylation (biotinyl-Ile-oxazolone) was 2.14 and the self-aminoacylation (biotinyl-Phe-oxazolone) was 3.3. For the same sequence, the self-aminoacylation (biotinyl-Val-oxazolone) was 2.24, the self-aminoacylation (biotinyl-Trp-oxazolone) was 2.43 and the self-aminoacylation (biotinyl-Leu-oxazolone) was 1.91.

For “AACUUUGCUAGUAGUCGCAAG [Fam3.1 aminoacylation ribozyme variant]”, the self-aminoacylation (biotinyl-Met-oxazolone) was 2.63, the self-aminoacylation (biotinyl-Ile-oxazolone) was 2.68 and the self-aminoacylation (biotinyl-Phe-oxazolone) was 3.31. For the same sequence, the self-aminoacylation (biotinyl-Val-oxazolone) was 2.67, the self-aminoacylation (biotinyl-Trp-oxazolone) was 3.53 and the self-aminoacylation (biotinyl-Leu-oxazolone) was 2.9.
